Source: US20170022275A1 (Dana-Farber, published 2017)

Experiments:
[1] = molecular target: MICA antigen (UniGene Hs.130838) with C-terminal BirA tag (human) (UniProt Q29983); test: flow cytometry of MICA-coated streptavidin beads, antibody directly PE-conjugated; 0.002 µg/ml; uncoated SA bead: 2.16
[2] = molecular target: MICA on the surface of cells (human) (UniProt Q29983); test: flow cytometry on B16 melanoma cells transduced with human MICA, antibody 10 µg/ml; B16 MICA unstained 11.4; same antibody on untransduced B16: 7.49 (B16 unstained 7.12)
[3] = molecular target: MICA antigen (UniGene Hs.130838) with C-terminal BirA tag (human) (UniProt Q29983); test: flow cytometry of MICA-coated streptavidin beads, antibody directly PE-conjugated; legend box says 0.005ug, the label in the panel says 1.2 µg/ml (they do not agree); uncoated SA bead: 1.98
[4] = molecular target: MICA antigen (UniGene Hs.130838) with C-terminal BirA tag (human) (UniProt Q29983); test: flow cytometry of MICA-coated streptavidin beads, antibody directly PE-conjugated; legend box says 0.12ug, the label in the panel says 0.05 µg/ml (they do not agree); uncoated SA bead: 1.95
[5] = molecular target: MICA antigen (UniGene Hs.130838) with C-terminal BirA tag (human) (UniProt Q29983); test: flow cytometry of MICA-coated streptavidin beads, antibody directly PE-conjugated; legend box says 0.001ug, the label in the panel says 0.24 µg/ml (they do not agree); uncoated SA bead: 1.95
[6] = molecular target: MICA antigen (UniGene Hs.130838) with C-terminal BirA tag (human) (UniProt Q29983); test: flow cytometry of MICA-coated streptavidin beads, antibody directly PE-conjugated; legend box says 0.024ug, the label in the panel says 0.01 µg/ml (they do not agree); uncoated SA bead: 1.95
[7] = molecular target: MICA antigen (UniGene Hs.130838) with C-terminal BirA tag (human) (UniProt Q29983); test: flow cytometry of MICA-coated streptavidin beads, Alexa488 anti-human IgG; antibody 6 µg/ml; uncoated SA bead: 2.63
[8] = molecular target: MICA antigen (UniGene Hs.130838) with C-terminal BirA tag (human) (UniProt Q29983); test: flow cytometry of MICA-coated streptavidin beads, Alexa488 anti-human IgG; antibody 30 µg/ml; uncoated SA bead: 3.53
[9] = molecular target: MICA antigen (UniGene Hs.130838) with C-terminal BirA tag (human) (UniProt Q29983); test: flow cytometry of MICA-coated streptavidin beads, Alexa488 anti-human IgG; antibody 1.2 µg/ml; uncoated SA bead: 2.16
[10] = molecular target: MICA antigen (UniGene Hs.130838) with C-terminal BirA tag (human) (UniProt Q29983); test: flow cytometry of MICA-coated streptavidin beads, Alexa488 anti-human IgG; antibody 0.24 µg/ml; uncoated SA bead: 2.3
[11] = molecular target: MICA antigen (UniGene Hs.130838) with C-terminal BirA tag (human) (UniProt Q29983); test: flow cytometry of MICA-coated streptavidin beads, Alexa488 anti-human IgG; antibody 0.05 µg/ml; uncoated SA bead: 2.18
[12] = molecular target: T1, MICA*009 (human, UniProt Q29983 26-307); test: array of overlapping 20-aa peptides of MICA*009 extracellular domains
T1 construct: also called MICA allele 009
T1 chain: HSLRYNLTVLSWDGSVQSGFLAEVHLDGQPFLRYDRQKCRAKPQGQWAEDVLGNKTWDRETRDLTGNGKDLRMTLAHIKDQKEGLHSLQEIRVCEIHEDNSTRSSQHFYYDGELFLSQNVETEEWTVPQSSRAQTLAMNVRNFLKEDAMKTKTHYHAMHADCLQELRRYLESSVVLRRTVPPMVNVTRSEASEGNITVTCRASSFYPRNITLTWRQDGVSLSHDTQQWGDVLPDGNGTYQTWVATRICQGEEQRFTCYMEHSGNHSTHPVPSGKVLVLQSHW

MICA antigen (UniGene Hs.130838) with C-terminal BirA tag (human), sequence (Q29983 other isoform, or with tags, fused parts or gaps limits assumed): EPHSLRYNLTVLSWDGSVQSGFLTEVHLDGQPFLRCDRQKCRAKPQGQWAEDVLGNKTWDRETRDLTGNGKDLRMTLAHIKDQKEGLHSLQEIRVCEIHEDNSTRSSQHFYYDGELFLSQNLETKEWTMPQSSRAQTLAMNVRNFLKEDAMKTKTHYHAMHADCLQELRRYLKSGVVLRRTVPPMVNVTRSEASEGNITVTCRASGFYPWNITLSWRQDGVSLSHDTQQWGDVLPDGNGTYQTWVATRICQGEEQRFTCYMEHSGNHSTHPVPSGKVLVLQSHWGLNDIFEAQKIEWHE
MICA on the surface of cells (human), sequence (Q29983 24-383): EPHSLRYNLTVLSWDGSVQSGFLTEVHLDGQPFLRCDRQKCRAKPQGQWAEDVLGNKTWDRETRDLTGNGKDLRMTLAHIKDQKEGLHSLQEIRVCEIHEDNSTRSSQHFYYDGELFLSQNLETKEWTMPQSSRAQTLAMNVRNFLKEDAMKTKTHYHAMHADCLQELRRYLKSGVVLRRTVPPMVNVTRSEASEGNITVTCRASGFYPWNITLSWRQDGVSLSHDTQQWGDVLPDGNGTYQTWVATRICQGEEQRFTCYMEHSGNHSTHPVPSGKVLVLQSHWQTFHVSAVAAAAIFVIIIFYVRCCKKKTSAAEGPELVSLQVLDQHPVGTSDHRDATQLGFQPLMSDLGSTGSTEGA

## commercially available anti-MICA/MICB monoclonal antibody (clone 6D4), BioLegend
[1]
  unnamed fluorescence number (FL2-H): 4.31
[2]
  Geom. Mean:FL1-H: 188
[3]
  unnamed fluorescence number (FL2-H): 65.9
[4]
  unnamed fluorescence number (FL2-H): 391
[5]
  unnamed fluorescence number (FL2-H): 16.8
[6]
  unnamed fluorescence number (FL2-H): 194

## negative control antibody (TTCF specific)
[7]
  unnamed fluorescence number (FL1-H): 2.62
[8]
  unnamed fluorescence number (FL1-H): 3.43
[9]
  unnamed fluorescence number (FL1-H): 2.27
[10]
  unnamed fluorescence number (FL1-H): 2.28
[11]
  unnamed fluorescence number (FL1-H): 2.23

B1: CM33322 Ab4 (antibody, V domains shown)
VH: QVQLQESGPGLVRPSGTLSLTCAVSGGSIDYSNWWGWVRQVPGKGLEWIGEVYHTGATHYNPSLERRCIISVDKSNNQVSLQLTSVTAADSAIYYCARERGTHCDGNRCYYVFFDHWGQGIPVTVSS
VL: DIVMTQTPLSSPVTLGQPASISCRSSESLVHWDGTTYLSWFHQRPGQPPRLLIYKVSNRFSGVPDRFSGSGAGTDFTLKISRVEADDVGIYYCMQATQFPRTFGQGTKVEIKR
notes: also called anti-MICA antibody ID-11; antibody ID 11
[12]
  binding result: binds
